Data from paper PMC6155552, “Arabidopsis thaliana alcohol dehydrogenase is differently affected by several redox modifications” (PLoS ONE, 2018).
Numbering of substitutions follows the chain as printed. Names may count otherwise.

B1: ADH (recombinant A. thaliana alcohol dehydrogenase, ADH1, At1g77120) (Arabidopsis thaliana) (protein)
chain: MSTTGQIIRCKAAVAWEAGKPLVIEEVEVAPPQKHEVRIKILFTSLCHTDVYFWEAKGQTPLFPRIFGHEAGGIVESVGEGVTDLQPGDHVLPIFTGECGECRHCHSEESNMCDLLRINTERGGMIHDGESRFSINGKPIYHFLGTSTFSEYTVVHSGQVAKINPDAPLDKVCIVSCGLSTGLGATLNVAKPKKGQSVAIFGLGAVGLGAAEGARIAGASRIIGVDFNSKRFDQAKEFGVTECVNPKDHDKPIQQVIAEMTDGGVDRSVECTGSVQAMIQAFECVHDGWGVAVLVGVPSKDDAFKTHPMNFLNERTLKGTFFGNYKPKTDIPGVVEKYMNKELELEKFITHTVPFSEINKAFDYMLKGESIRCIITMGA
notes: tag removal not mentioned
B2: ADH (recombinant A. thaliana alcohol dehydrogenase, ADH1, At1g77120) (Arabidopsis thaliana; C243S) (protein)
chain: B1 chain with C243S
notes: tag removal not mentioned

Legend:
[1] = biological target: T1, ADH (recombinant A. thaliana alcohol dehydrogenase, ADH1, At1g77120) (Arabidopsis thaliana, UniProt P06525); assay: protection of activity against inactivation by H2O2 or DEA/NO; assay type: biochemical; conditions: 0.02-0.2 mM NADH; 0.5 mM H2O2 or DEA/NO; 100 mM Tris-Cl pH 7.5; room temperature
T1 construct: tag removal not mentioned
T1 sequence (P06525 1-379): B1 chain

[2] = substrate: NC(=O)c1ccc[n+]([C@@H]2O[C@H](COP(=O)(O)OP(=O)(O)OC[C@H]3O[C@@H](n4cnc5c(N)ncnc54)[C@H](O)[C@@H]3O)[C@@H](O)[C@H]2O)c1; assay: microplate ADH activity assay, non-linear regression; assay type: biochemical, Arabidopsis thaliana; conditions: ethanol-to-acetaldehyde direction; NAD+ varied 0-0.8 mM; 5 mM DTT
Text: microplate ADH activity assay, non-linear regression on ADH (recombinant A. thaliana alcohol dehydrogenase, ADH1, At1g77120)

Row | Molecule | protection of activity against inactivation by H2O2 or DEA/NO [1] | Km [2] | kcat [2] | kcat/Km [2]
1 | NC(=O)C1=CN([C@@H]2O[C@H](COP(=O)(O)OP(=O)(O)OC[C@H]3O[C@@H](n4cnc5c(N)ncnc54)[C@H](O)[C@@H]3O)[C@@H](O)[C@H]2O)C=CC1 [NADH] | presence of NADH allows the enzyme to keep a significantly higher activity level | – | – | –
2 | B1 | – | 166 ± 17 µM | 31.5 ± 2.7 s⁻¹ | 191000 ± 8000 M⁻¹ s⁻¹
3 | B2 | – | 251 ± 17 µM | 52.1 ± 3 s⁻¹ | 208000 ± 5000 M⁻¹ s⁻¹
